Results: the supplement of paper PMC9112550, “Optimization of the antimicrobial peptide Bac7 by deep mutational scanning” (BMC Biology, 2022)

System: Escherichia coli TOP10
Test: shrunken log2 fold change of peptide-encoding DNA abundance (4.5 h post-induction vs induction); higher = less antimicrobial activity (less host growth inhibition)
Conditions: time post-induction: 4.5 h; library: site-saturation at positions 5, 18, 19, 20
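Also: peptides expressed intracellularly from a pBAD plasmid library in pooled LB shake-flask culture, induced with 0.3% L-arabinose, DNA abundance read by NGS, three biological replicates, DESeq2 with apeglm shrinkage.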

Sequence	shrunken log2 fold change
RRIRGRPPRLPRPRPRPPGIPRP	0.745
RRIRDRPPRLPRPRPRPQMEPRP	0.00785
RRIRDRPPRLPRPRPRPSHYPRP	-1.14
RRIRDRPPRLPRPRPRPRGSPRP	0.255
RRIRIRPPRLPRPRPRPIITPRP	-0.625
RRIRMRPPRLPRPRPRPRVGPRP	1.02
RRIRPRPPRLPRPRPRPWWEPRP	0.0134
RRIRERPPRLPRPRPRPVTNPRP	-0.0383
RRIRPRPPRLPRPRPRPRTMPRP	0.276
RRIRYRPPRLPRPRPRPKQLPRP	0.0588
RRIRNRPPRLPRPRPRPYFYPRP	-0.345
RRIRSRPPRLPRPRPRPIFCPRP	-0.0166
RRIRHRPPRLPRPRPRPEPHPRP	0.113
RRIRMRPPRLPRPRPRPAQKPRP	1.2
RRIRHRPPRLPRPRPRPCYMPRP	-0.494
RRIRQRPPRLPRPRPRPVNDPRP	-0.0199
RRIRPRPPRLPRPRPRPVAAPRP	0.406
RRIRSRPPRLPRPRPRPKCPPRP	-0.118
RRIRYRPPRLPRPRPRPEPLPRP	0.0319
RRIRERPPRLPRPRPRPFSSPRP	-0.0152
RRIRVRPPRLPRPRPRPYNLPRP	-0.414
RRIRTRPPRLPRPRPRPASAPRP	0.916
RRIRLRPPRLPRPRPRPDLTPRP	0.169
RRIRCRPPRLPRPRPRPQPRPRP	0.745
RRIRFRPPRLPRPRPRPDFDPRP	-0.15

Sequence	shrunken log2 fold change
RRIRTRPPRLPRPRPRPMFEPRP	-0.171
RRIRDRPPRLPRPRPRPSQKPRP	-0.0691
RRIRWRPPRLPRPRPRPSDRPRP	-0.0684
RRIRSRPPRLPRPRPRPWPFPRP	0.0554
RRIRSRPPRLPRPRPRPYYEPRP	-0.628
RRIRWRPPRLPRPRPRPMTKPRP	0.181
RRIRNRPPRLPRPRPRPFVKPRP	-0.669
RRIRMRPPRLPRPRPRPMRQPRP	-0.0415
RRIRIRPPRLPRPRPRPAYGPRP	-0.253
RRIRVRPPRLPRPRPRPTASPRP	0.541
RRIRERPPRLPRPRPRPYKTPRP	-0.00814
RRIRNRPPRLPRPRPRPMIDPRP	-0.0621
RRIRNRPPRLPRPRPRPKVGPRP	0.148
RRIRDRPPRLPRPRPRPLMGPRP	0.0162
RRIRPRPPRLPRPRPRPGKGPRP	0.0267
RRIRKRPPRLPRPRPRPQCKPRP	0.0757
RRIRYRPPRLPRPRPRPVKGPRP	-0.015
RRIRWRPPRLPRPRPRPVWAPRP	0.263
RRIRERPPRLPRPRPRPSTDPRP	-0.332
RRIRKRPPRLPRPRPRPQPIPRP	0.424
RRIRARPPRLPRPRPRPTWCPRP	0.325
RRIRYRPPRLPRPRPRPCGEPRP	-0.0504
RRIRPRPPRLPRPRPRPGSRPRP	0.144
RRIRKRPPRLPRPRPRPYVIPRP	-0.112
RRIRFRPPRLPRPRPRPKHVPRP	-0.0891

Sequence	shrunken log2 fold change
RRIRRRPPRLPRPRPRPDVMPRP	0.195
RRIRTRPPRLPRPRPRPWNGPRP	-0.199
RRIRTRPPRLPRPRPRPVLNPRP	-0.269
RRIRQRPPRLPRPRPRPQWRPRP	0.419
RRIRCRPPRLPRPRPRPRVNPRP	0.0551
RRIRDRPPRLPRPRPRPDIRPRP	-0.00151
RRIRFRPPRLPRPRPRPINAPRP	0.00976
RRIRIRPPRLPRPRPRPKDNPRP	-0.606
RRIRMRPPRLPRPRPRPHWTPRP	-0.106
RRIRVRPPRLPRPRPRPGKGPRP	0.0187
RRIRTRPPRLPRPRPRPCRNPRP	-0.533
RRIRQRPPRLPRPRPRPYKRPRP	-0.213
RRIRMRPPRLPRPRPRPVVQPRP	-0.0427
RRIRRRPPRLPRPRPRPGSCPRP	0.152
RRIRPRPPRLPRPRPRPHQVPRP	0.341
RRIRSRPPRLPRPRPRPDIGPRP	-0.113
RRIRPRPPRLPRPRPRPLMRPRP	0.761
RRIRTRPPRLPRPRPRPCMRPRP	-0.0225
RRIRWRPPRLPRPRPRPKVEPRP	-0.0433
RRIRKRPPRLPRPRPRPFNQPRP	-0.0503
RRIRARPPRLPRPRPRPIEAPRP	0.213
RRIRVRPPRLPRPRPRPKWYPRP	-0.194
RRIRVRPPRLPRPRPRPGERPRP	0.674
RRIRWRPPRLPRPRPRPAPIPRP	0.319
RRIRSRPPRLPRPRPRPSRTPRP	0.822

Sequence	shrunken log2 fold change
RRIRSRPPRLPRPRPRPNITPRP	-0.582
RRIRNRPPRLPRPRPRPAVHPRP	-0.0211
RRIRLRPPRLPRPRPRPCMQPRP	-0.154
RRIRRRPPRLPRPRPRPQDHPRP	-0.0159
RRIRPRPPRLPRPRPRPDFEPRP	-0.235
RRIRIRPPRLPRPRPRPCDFPRP	-0.834
RRIRARPPRLPRPRPRPWEDPRP	-0.015
RRIRPRPPRLPRPRPRPNSLPRP	-0.272
RRIRNRPPRLPRPRPRPPDDPRP	0.123
RRIRIRPPRLPRPRPRPRCSPRP	-0.137
RRIRNRPPRLPRPRPRPPTAPRP	0.295
RRIRRRPPRLPRPRPRPRSRPRP	0.345
RRIRKRPPRLPRPRPRPRISPRP	-0.258
RRIRFRPPRLPRPRPRPIWNPRP	-0.147
RRIRIRPPRLPRPRPRPRGVPRP	0.0556
RRIRYRPPRLPRPRPRPGALPRP	0.137
RRIRMRPPRLPRPRPRPHRMPRP	-0.0254
RRIRCRPPRLPRPRPRPFQHPRP	-0.221
RRIRCRPPRLPRPRPRPLYKPRP	-0.275
RRIRNRPPRLPRPRPRPTGCPRP	-0.0633
RRIRIRPPRLPRPRPRPTCCPRP	0.111
RRIRARPPRLPRPRPRPYRMPRP	0.0568
RRIRCRPPRLPRPRPRPWQSPRP	-0.127
RRIRDRPPRLPRPRPRPGSNPRP	-0.153
RRIRARPPRLPRPRPRPCRVPRP	-0.19

Sequence	shrunken log2 fold change
RRIRSRPPRLPRPRPRPPYLPRP	-0.45
RRIRWRPPRLPRPRPRPDWVPRP	0.253
RRIRGRPPRLPRPRPRPWYAPRP	-0.249
RRIRERPPRLPRPRPRPEMMPRP	-0.269
RRIRDRPPRLPRPRPRPDKSPRP	-0.119
RRIRNRPPRLPRPRPRPCKYPRP	-1.14
RRIRYRPPRLPRPRPRPESCPRP	0.0195
RRIRWRPPRLPRPRPRPGDNPRP	0.106
RRIRYRPPRLPRPRPRPKQTPRP	0.283
RRIRCRPPRLPRPRPRPWQCPRP	-0.0231
RRIRHRPPRLPRPRPRPGWDPRP	0.18
RRIRERPPRLPRPRPRPQHCPRP	-0.23
RRIRHRPPRLPRPRPRPKMWPRP	0.451
RRIRHRPPRLPRPRPRPNTSPRP	-0.534
RRIRLRPPRLPRPRPRPDYLPRP	-0.114
RRIRLRPPRLPRPRPRPLIYPRP	-0.832
RRIRRRPPRLPRPRPRPMASPRP	-0.00822
RRIRQRPPRLPRPRPRPICKPRP	-0.00411
RRIRQRPPRLPRPRPRPYMIPRP	0.00875
RRIRGRPPRLPRPRPRPYANPRP	0.0266
RRIRKRPPRLPRPRPRPFIIPRP	-0.268
RRIRGRPPRLPRPRPRPQTYPRP	0.0285
RRIRSRPPRLPRPRPRPPKVPRP	-0.211
RRIRIRPPRLPRPRPRPNIGPRP	-0.358
RRIRHRPPRLPRPRPRPPEMPRP	0.484
